According to paper PMC3040281 (Biochemistry, 2011):

How the values were obtained:
YghU = target: T1, YghU (Escherichia coli, UniProt Q46845); assay: intrinsic protein fluorescence titration, single-site fit; assay type: binding
T1 sequence (Q46845 1-288): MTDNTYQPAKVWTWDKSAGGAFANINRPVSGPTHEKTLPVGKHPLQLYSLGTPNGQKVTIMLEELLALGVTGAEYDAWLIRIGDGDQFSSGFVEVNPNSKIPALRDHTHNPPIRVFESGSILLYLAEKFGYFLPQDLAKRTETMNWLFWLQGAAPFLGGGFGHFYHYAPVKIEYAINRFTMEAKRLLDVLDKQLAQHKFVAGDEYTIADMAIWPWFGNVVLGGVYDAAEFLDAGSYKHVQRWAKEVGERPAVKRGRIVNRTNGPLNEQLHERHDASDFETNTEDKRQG

SEC = target: the molecule itself; assay: SEC
purified protein [1] = substrate: CCCCC[C@@H](/C=C/C=C\C/C=C\C/C=C\CCCC(=O)O)OO; assay: purified protein; assay type: biochemical, Escherichia coli; conditions: 3 mM GSH, 100 mM KH2PO4, pH 7.0, 0.005% BSA, 25 °C
purified protein [2] = substrate: CC(C)(OO)c1ccccc1; assay: purified protein; assay type: biochemical, Escherichia coli; conditions: GSH co-substrate, 100 mM KH2PO4, pH 7.0, 25 °C
purified protein [3] = substrate: CCCCC[C@@H](/C=C/C=C\CCCCCCCC(=O)O)OO; assay: purified protein; assay type: biochemical, Escherichia coli; conditions: GSH co-substrate, 100 mM KH2PO4, pH 7.0, 25 °C

Molecule | Kd (YghU) [µM] | stoichiometry N (SEC) | Km (purified protein [1]) [µM] | kcat (purified protein [1]) [s⁻¹] | kcat/Km (purified protein [1]) [M⁻¹ s⁻¹] | Km (purified protein [2]) [µM] | kcat (purified protein [2]) [s⁻¹] | kcat/Km (purified protein [2]) [M⁻¹ s⁻¹] | Km (purified protein [3]) [µM] | kcat (purified protein [3]) [s⁻¹] | kcat/Km (purified protein [3]) [M⁻¹ s⁻¹]
NCCCCNCCCNC(=O)CNC(=O)[C@H](CS)NC(=O)CC[C@H](N)C(=O)O [GspSH] | 1000 ± 100 | – | – | – | – | – | – | – | – | – | –
YghU (enzyme, Escherichia coli K-12, UniProt Q46845 1-288, looked up) MTDNTYQPAKVWTWDKSAGGAFANINRPVSGPTHEKTLPVGKHPLQLYSLGTPNGQKVTIMLEELLALGVTGAEYDAWLIRIGDGDQFSSGFVEVNPNSKIPALRDHTHNPPIRVFESGSILLYLAEKFGYFLPQDLAKRTETMNWLFWLQGAAPFLGGGFGHFYHYAPVKIEYAINRFTMEAKRLLDVLDKQLAQHKFVAGDEYTIADMAIWPWFGNVVLGGVYDAAEFLDAGSYKHVQRWAKEVGERPAVKRGRIVNRTNGPLNEQLHERHDASDFETNTEDKRQG | – | 2 | 28 ± 4 | 0.096 ± 0.004 | 3400 ± 1500 | 16 ± 2 | 0.05 ± 0.001 | 3500 ± 400 | 130 ± 30 | 0.19 ± 0.02 | 1500 ± 400
